Laboratory results published in US9333272B2, “Fibrin binding peptide conjugates for diagnostic and therapeutic applications” (Bracco Imaging SpA, priority 2006, dated 2016).
Ends that are not written are not given here.

Molecular target: T1, fibrin in tumor, Neuro 2A neuroblastoma (Mus musculus, UniProt E9PV24+Q8K0E8+Q8VCM7)
T1 construct: from tissue; host or cells: tumor stroma of living mice (BALB-neuT mammary tumor, TRAMP prostate tumor, Neuro-2a neuroblastoma in A/J mice)
T1 sequence (E9PV24 20-557 isoform E9PV24-2 limits assumed): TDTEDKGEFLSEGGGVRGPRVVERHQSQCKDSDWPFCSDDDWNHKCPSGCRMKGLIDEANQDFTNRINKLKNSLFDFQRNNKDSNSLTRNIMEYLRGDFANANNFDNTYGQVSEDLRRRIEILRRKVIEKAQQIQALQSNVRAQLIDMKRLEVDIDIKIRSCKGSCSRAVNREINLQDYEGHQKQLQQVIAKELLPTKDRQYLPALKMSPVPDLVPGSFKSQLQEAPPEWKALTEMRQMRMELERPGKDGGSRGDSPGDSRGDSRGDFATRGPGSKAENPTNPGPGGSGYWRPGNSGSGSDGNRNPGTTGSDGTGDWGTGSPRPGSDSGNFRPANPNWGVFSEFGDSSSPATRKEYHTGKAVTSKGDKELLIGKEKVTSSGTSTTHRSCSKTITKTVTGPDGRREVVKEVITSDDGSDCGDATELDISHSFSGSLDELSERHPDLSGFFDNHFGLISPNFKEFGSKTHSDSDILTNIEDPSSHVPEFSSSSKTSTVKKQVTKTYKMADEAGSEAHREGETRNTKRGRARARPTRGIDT
T1 sequence (Q8K0E8 35-481 limits assumed): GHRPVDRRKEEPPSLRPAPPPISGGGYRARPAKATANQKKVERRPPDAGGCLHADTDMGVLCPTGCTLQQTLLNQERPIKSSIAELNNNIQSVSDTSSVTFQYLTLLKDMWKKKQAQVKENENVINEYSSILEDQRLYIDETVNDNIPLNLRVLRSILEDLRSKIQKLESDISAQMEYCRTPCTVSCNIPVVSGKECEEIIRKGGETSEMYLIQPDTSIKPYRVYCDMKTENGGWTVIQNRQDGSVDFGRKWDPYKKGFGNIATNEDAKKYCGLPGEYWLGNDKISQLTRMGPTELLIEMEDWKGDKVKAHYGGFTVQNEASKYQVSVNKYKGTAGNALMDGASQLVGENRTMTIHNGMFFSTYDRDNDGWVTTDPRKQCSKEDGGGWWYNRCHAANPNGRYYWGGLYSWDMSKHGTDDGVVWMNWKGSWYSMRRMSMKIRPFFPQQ
T1 sequence (Q8VCM7 26-436): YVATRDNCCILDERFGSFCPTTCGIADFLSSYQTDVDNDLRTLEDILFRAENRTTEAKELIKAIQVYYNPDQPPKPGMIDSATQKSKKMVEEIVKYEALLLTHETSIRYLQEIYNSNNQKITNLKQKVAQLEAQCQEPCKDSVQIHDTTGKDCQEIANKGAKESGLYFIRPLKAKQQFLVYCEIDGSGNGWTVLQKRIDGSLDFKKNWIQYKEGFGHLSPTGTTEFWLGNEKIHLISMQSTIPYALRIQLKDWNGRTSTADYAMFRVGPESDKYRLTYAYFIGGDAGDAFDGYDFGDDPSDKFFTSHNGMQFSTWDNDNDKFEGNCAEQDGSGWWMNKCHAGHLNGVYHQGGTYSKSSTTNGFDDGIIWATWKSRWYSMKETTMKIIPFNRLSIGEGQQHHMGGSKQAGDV
Experiment: In vivo MRI, neuroblastoma tumor induced by Neuro 2A cells, Example 18
Details: 25 μmol/kg of complex, 4 h post injection, 2T
Description: This test has been performed on mice with neuroblastoma tumor induced by inoculation of 2.10^6 Neuro 2A cells.
Two groups of 5 mice each inoculated were formed to test the Reference compound 2 and the Chelate complex 1.
At day-10 post tumor cells inoculation, mice with similar tumor size (5-10 mm in diameter) were selected for the in vivo MRI tests. Before and post contrast administration, T1 and T2 high resolution 2D spin-echo and 3D gradient echo images were acquired. MRI was performed at 4 h and 24 h post injection. The maximum signal intensity was measured in the entire tumor area and in each image post contrast covering the whole tumor and compared to the pre-contrast images. At the end of MRI exams, all animals were sacrificed and the tumor, blood, liver, kidneys and femoral bone were removed and prepared for Gd assay by ICP. […]
The signal intensity was measured within a region of interest (ROI) including the entire tumor, drawn by an operator on each MR image using a dedicated software (MR Research Systems Ltd, Surrey UK). Signal intensity enhancement (Enh %) was determined as: Enh %=100*(SIx(t)−SI0)/SI0 where SI0 and SIx(t) were the signal intensity of tumor pre and post injection of the contrast agent (test articles or reference), respectively.

“Chelate Complex 1: Gd chelate (four DTPA-Glu) conjugated via linker to fibrin-binding peptide SEQ ID NO:001 (WQPCPAESWTFCWDPGGGK; cysteine pairing not given here; also: Gd chelate (four DTPA-Glu) conjugated via linker, site not given here, metal complex: Gd)” was tested, and the “Tumor signal enhancement (T1 weighted MRI), in words” value was “high signal enhancement inside tumor” and the “Tumor signal enhancement (T1 weighted MRI), in words” value (listed as chelate complex 1) was “significant tumor signal enhancement”.
